Literature values as cited in PMC5428663, “Identification of small molecule inhibitors of Interleukin-18” (Scientific Reports, 2017).

Molecular target: IL-18 (Homo sapiens) (UniProt Q14116)
Sequence (Q14116 37-193): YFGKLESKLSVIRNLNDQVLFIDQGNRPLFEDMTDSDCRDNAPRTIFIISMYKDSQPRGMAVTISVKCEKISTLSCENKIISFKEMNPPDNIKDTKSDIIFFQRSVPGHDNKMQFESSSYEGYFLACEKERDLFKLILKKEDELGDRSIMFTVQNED

Sequence of IL-18BP (O95998 31-194): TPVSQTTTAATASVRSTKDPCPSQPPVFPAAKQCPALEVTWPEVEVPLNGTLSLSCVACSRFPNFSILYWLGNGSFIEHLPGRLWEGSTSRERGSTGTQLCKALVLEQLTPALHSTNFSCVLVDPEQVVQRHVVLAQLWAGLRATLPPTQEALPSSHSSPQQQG

Q: For IL-18BP (from UniProt O95998), which Kd is on record?
A: Its Kd is 0.4 nM.
